Results as given in paper PMC9482650, “Quantitative fragmentomics allow affinity mapping of interactomes” (Nature Communications, 2022).

What was measured:
Assay in all cases: holdup assay
Design in all cases: key: below the threshold = too weak to quantify, mostly under pKd 3.1 to 4
DLG4_2, P78352 = molecular target: DLG4_2, P78352
MPDZ_10, O75970 = molecular target: T1, MPDZ_10, O75970
T1 sequence (O75970 1624-1722, limits assumed, looked up): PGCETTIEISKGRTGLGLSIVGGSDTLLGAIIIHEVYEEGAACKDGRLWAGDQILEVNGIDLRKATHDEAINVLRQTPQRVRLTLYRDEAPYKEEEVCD

PDLIM1, O00151 = molecular target: PDLIM1, O00151
APBA1_1, Q02410 = molecular target: T2, APBA1_1, Q02410
T2 sequence (Q02410 651-752, limits assumed, looked up): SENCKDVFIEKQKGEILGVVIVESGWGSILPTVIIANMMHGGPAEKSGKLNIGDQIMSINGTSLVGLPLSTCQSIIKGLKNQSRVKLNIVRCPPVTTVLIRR

GOPC, Q9HD26 = molecular target: GOPC, Q9HD26
NHERF3_3, Q5T2W1 = molecular target: T3, NHERF3_3, Q5T2W1
T3 sequence (Q5T2W1 238-333, limits assumed, looked up): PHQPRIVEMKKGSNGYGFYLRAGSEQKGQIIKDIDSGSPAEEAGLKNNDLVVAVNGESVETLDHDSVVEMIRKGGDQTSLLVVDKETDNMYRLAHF

PDZD2_2, O15018 = molecular target: T4, PDZD2_2, O15018
T4 sequence (O15018 329-429, limits assumed, looked up): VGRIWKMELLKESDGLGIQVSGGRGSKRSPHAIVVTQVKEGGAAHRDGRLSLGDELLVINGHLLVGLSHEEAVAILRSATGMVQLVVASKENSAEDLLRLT

Inadl_1, Q8NI35 = molecular target: Inadl_1, Q8NI35
GRIP1_4, Q9Y3R0 = molecular target: T5, GRIP1_4, Q9Y3R0
T5 sequence (Q9Y3R0 467-571, limits assumed, looked up): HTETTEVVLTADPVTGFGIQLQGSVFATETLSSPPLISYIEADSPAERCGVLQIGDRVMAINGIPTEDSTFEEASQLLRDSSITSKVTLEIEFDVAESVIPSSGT

HTRA2, O43464 = molecular target: HTRA2, O43464
DFNB31_3, Q9P202 = molecular target: T6, DFNB31_3, Q9P202
T6 sequence (Q9P202 811-907, limits assumed, looked up): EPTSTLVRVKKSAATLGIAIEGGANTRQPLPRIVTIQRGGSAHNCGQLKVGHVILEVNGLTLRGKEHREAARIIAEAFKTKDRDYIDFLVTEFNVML

NHERF4_4, Q86UT5 = molecular target: NHERF4_4, Q86UT5
FRMPD4, Q14CM0 = molecular target: FRMPD4, Q14CM0
TIAM2, Q8IVF5 = molecular target: T7, TIAM2, Q8IVF5
T7 sequence (Q8IVF5 885-986, limits assumed, looked up): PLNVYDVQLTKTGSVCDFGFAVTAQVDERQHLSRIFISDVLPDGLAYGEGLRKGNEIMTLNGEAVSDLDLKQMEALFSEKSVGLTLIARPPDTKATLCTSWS

LIN7B, Q9HAP6 = molecular target: T8, LIN7B, Q9HAP6
T8 sequence (Q9HAP6 88-185, limits assumed, looked up): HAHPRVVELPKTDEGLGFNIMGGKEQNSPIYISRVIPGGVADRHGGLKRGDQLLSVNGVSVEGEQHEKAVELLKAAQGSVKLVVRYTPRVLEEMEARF

CASK, O14936 = molecular target: CASK, O14936
Inadl_6, Q8NI35 = molecular target: Inadl_6, Q8NI35
TJP1_3, Q07157 = molecular target: TJP1_3, Q07157
MAST2, Q6P0Q8 = molecular target: MAST2, Q6P0Q8
DLG1_3, Q12959 = molecular target: DLG1_3, Q12959
IL16_4, Q14005 = molecular target: IL16_4, Q14005
APBA3_1, O96018 = molecular target: T9, APBA3_1, O96018
T9 sequence (O96018 389-490, limits assumed, looked up): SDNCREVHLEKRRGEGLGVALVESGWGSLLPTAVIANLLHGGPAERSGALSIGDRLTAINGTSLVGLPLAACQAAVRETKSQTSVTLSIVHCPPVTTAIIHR

GRIP2_6, Q9C0E4 = molecular target: GRIP2_6, Q9C0E4
PDZRN4_1, Q6ZMN7 = molecular target: PDZRN4_1, Q6ZMN7
LRRC7, Q96NW7 = molecular target: T10, LRRC7, Q96NW7
T10 sequence (Q96NW7 1440-1537, limits assumed, looked up): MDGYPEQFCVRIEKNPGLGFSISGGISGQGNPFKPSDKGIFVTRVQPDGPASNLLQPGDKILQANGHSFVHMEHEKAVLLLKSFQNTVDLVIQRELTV

SIPA1L2, Q9P2F8 = molecular target: T11, SIPA1L2, Q9P2F8
T11 sequence (Q9P2F8 945-1036, limits assumed, looked up): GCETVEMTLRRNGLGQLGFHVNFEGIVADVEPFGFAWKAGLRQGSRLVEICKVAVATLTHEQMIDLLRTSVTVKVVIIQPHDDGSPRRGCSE

[1] = plain residues with an end cap or a label only (N-terminal biotin on a linker: ahx)
[2] = plain residues with an end cap or a label only (N-terminal biotin on a linker: ado-ado, ttds)
[3] = plain residues with an end cap or a label only (N-terminal biotin on a linker: ttds)
[4] = plain residues with an end cap or a label only (N-terminal biotin on a linker: ado-ado)

HTRA2, O43464, sequence (O43464 355-458): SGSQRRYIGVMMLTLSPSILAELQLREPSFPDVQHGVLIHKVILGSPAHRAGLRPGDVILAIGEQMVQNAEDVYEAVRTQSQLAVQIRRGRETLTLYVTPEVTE
Inadl_6, Q8NI35, sequence (Q8NI35 1058-1167): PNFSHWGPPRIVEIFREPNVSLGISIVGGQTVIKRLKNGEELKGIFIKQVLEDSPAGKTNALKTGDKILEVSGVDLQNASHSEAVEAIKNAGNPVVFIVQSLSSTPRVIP
CASK, O14936, sequence (O14936 487-570): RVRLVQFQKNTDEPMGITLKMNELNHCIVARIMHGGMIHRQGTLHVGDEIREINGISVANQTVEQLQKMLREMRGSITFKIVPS
NHERF4_4, Q86UT5, sequence (Q86UT5 464-550): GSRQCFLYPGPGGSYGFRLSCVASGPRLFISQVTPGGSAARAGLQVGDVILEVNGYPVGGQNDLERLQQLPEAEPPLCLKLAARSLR
DLG1_3, Q12959, sequence (Q12959 457-571): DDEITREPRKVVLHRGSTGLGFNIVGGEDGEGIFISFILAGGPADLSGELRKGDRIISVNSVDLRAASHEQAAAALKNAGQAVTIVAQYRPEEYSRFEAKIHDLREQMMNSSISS
IL16_4, Q14005, sequence (Q14005 1229-1329): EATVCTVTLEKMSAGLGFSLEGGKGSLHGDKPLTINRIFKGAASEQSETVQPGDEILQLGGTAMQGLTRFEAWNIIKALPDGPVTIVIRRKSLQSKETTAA
FRMPD4, Q14CM0, sequence (Q14CM0 67-160): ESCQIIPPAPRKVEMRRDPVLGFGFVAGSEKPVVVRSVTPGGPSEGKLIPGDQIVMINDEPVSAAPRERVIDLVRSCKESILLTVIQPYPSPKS
DLG4_2, P78352, sequence (P78352 155-259): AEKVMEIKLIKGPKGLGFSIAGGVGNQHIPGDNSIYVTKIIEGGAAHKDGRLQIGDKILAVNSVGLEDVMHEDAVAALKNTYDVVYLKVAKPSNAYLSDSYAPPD
MAST2, Q6P0Q8, sequence (Q6P0Q8 1099-1202): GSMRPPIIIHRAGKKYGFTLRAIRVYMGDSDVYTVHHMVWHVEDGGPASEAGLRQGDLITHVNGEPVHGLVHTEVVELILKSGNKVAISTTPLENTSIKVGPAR
PDZRN4_1, Q6ZMN7, sequence (Q6ZMN7 213-318): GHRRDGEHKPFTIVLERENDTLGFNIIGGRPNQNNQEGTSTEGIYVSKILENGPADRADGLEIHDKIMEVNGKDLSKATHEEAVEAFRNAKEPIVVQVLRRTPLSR
PDLIM1, O00151, sequence (O00151 1-87): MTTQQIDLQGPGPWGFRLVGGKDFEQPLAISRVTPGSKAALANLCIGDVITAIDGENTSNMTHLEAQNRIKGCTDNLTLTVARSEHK
Inadl_1, Q8NI35, sequence (Q8NI35 113-229): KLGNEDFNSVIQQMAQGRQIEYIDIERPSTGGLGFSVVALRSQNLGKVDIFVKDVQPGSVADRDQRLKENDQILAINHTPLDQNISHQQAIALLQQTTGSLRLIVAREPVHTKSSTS
TJP1_3, Q07157, sequence (Q07157 416-512): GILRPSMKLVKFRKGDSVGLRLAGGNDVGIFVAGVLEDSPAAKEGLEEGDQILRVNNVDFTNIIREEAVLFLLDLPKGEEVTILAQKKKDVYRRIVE
GRIP2_6, Q9C0E4, sequence (Q9C0E4 648-740): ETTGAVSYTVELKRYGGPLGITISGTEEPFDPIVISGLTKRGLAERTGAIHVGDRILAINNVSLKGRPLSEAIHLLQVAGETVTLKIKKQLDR

B1: NHERF1, O14745 (peptide)
chain: SKKNELFSNL
pKd (DLG4_2, P78352; [1]): below the threshold
pKd (MPDZ_10, O75970; [1]): below the threshold
pKd (PDLIM1, O00151; [1]): below the threshold
pKd (APBA1_1, Q02410; [1]): below the threshold
pKd (GOPC, Q9HD26; [1]): below the threshold
pKd (NHERF3_3, Q5T2W1; [1]): below the threshold
pKd (PDZD2_2, O15018; [1]): 4.38
pKd (Inadl_1, Q8NI35; [1]): below the threshold
pKd (GRIP1_4, Q9Y3R0; [1]): below the threshold
pKd (HTRA2, O43464; [1]): below the threshold
pKd (DFNB31_3, Q9P202; [1]): below the threshold
pKd (NHERF4_4, Q86UT5; [1]): below the threshold
pKd (FRMPD4, Q14CM0; [1]): below the threshold
pKd (TIAM2, Q8IVF5; [1]): below the threshold
pKd (LIN7B, Q9HAP6; [1]): below the threshold
pKd (CASK, O14936; [1]): below the threshold
pKd (Inadl_6, Q8NI35; [1]): below the threshold
pKd (TJP1_3, Q07157; [1]): below the threshold
pKd (MAST2, Q6P0Q8; [1]): 4.5
pKd (DLG1_3, Q12959; [1]): below the threshold
pKd (IL16_4, Q14005; [1]): below the threshold
pKd (APBA3_1, O96018; [1]): below the threshold
pKd (GRIP2_6, Q9C0E4; [1]): below the threshold
pKd (PDZRN4_1, Q6ZMN7; [1]): below the threshold
pKd (LRRC7, Q96NW7; [1]): below the threshold
pKd (SIPA1L2, Q9P2F8; [1]): below the threshold

B2: KCNA4, P22459 (peptide)
chain: SNAKAVETDV
pKd (DLG4_2, P78352; [2]): 5.19
pKd (MPDZ_10, O75970; [2]): below the threshold
pKd (PDLIM1, O00151; [2]): 3.77
pKd (APBA1_1, Q02410; [2]): below the threshold
pKd (GOPC, Q9HD26; [2]): below the threshold
pKd (NHERF3_3, Q5T2W1; [2]): below the threshold
pKd (PDZD2_2, O15018; [2]): 4.32
pKd (Inadl_1, Q8NI35; [2]): below the threshold
pKd (GRIP1_4, Q9Y3R0; [2]): below the threshold
pKd (HTRA2, O43464; [2]): below the threshold
pKd (DFNB31_3, Q9P202; [2]): below the threshold
pKd (NHERF4_4, Q86UT5; [2]): below the threshold
pKd (FRMPD4, Q14CM0; [2]): below the threshold
pKd (TIAM2, Q8IVF5; [2]): below the threshold
pKd (LIN7B, Q9HAP6; [2]): below the threshold
pKd (CASK, O14936; [2]): below the threshold
pKd (Inadl_6, Q8NI35; [2]): below the threshold
pKd (TJP1_3, Q07157; [2]): below the threshold
pKd (MAST2, Q6P0Q8; [2]): 5.18
pKd (DLG1_3, Q12959; [2]): below the threshold
pKd (IL16_4, Q14005; [2]): below the threshold
pKd (APBA3_1, O96018; [2]): below the threshold
pKd (GRIP2_6, Q9C0E4; [2]): below the threshold
pKd (PDZRN4_1, Q6ZMN7; [2]): below the threshold
pKd (LRRC7, Q96NW7; [2]): 3.64
pKd (SIPA1L2, Q9P2F8; [2]): below the threshold

B3: HPV82-E6, Q9IR59 (peptide)
chain: PPRQRSETQV
pKd (DLG4_2, P78352; [3]): 4.9
pKd (MPDZ_10, O75970; [3]): below the threshold
pKd (PDLIM1, O00151; [3]): below the threshold
pKd (APBA1_1, Q02410; [3]): below the threshold
pKd (GOPC, Q9HD26; [3]): 3.63
pKd (NHERF3_3, Q5T2W1; [3]): below the threshold
pKd (PDZD2_2, O15018; [3]): below the threshold
pKd (Inadl_1, Q8NI35; [3]): below the threshold
pKd (GRIP1_4, Q9Y3R0; [3]): below the threshold
pKd (HTRA2, O43464; [3]): below the threshold
pKd (DFNB31_3, Q9P202; [3]): below the threshold
pKd (NHERF4_4, Q86UT5; [3]): below the threshold
pKd (FRMPD4, Q14CM0; [3]): below the threshold
pKd (TIAM2, Q8IVF5; [3]): below the threshold
pKd (LIN7B, Q9HAP6; [3]): below the threshold
pKd (CASK, O14936; [3]): below the threshold
pKd (Inadl_6, Q8NI35; [3]): below the threshold
pKd (TJP1_3, Q07157; [3]): below the threshold
pKd (MAST2, Q6P0Q8; [3]): 5.18
pKd (DLG1_3, Q12959; [3]): 3.99
pKd (IL16_4, Q14005; [3]): below the threshold
pKd (APBA3_1, O96018; [3]): below the threshold
pKd (GRIP2_6, Q9C0E4; [3]): below the threshold
pKd (PDZRN4_1, Q6ZMN7; [3]): 3.83
pKd (LRRC7, Q96NW7; [3]): below the threshold
pKd (SIPA1L2, Q9P2F8; [3]): below the threshold

B4: SLC15A5, A6NIM6 (peptide)
chain: SSIDLWETAL
pKd (DLG4_2, P78352; [3]): 4.22
pKd (MPDZ_10, O75970; [3]): below the threshold
pKd (PDLIM1, O00151; [3]): 4.22
pKd (APBA1_1, Q02410; [3]): below the threshold
pKd (GOPC, Q9HD26; [3]): 4.85
pKd (NHERF3_3, Q5T2W1; [3]): below the threshold
pKd (PDZD2_2, O15018; [3]): 4.11
pKd (Inadl_1, Q8NI35; [3]): below the threshold
pKd (GRIP1_4, Q9Y3R0; [3]): below the threshold
pKd (HTRA2, O43464; [3]): below the threshold
pKd (DFNB31_3, Q9P202; [3]): below the threshold
pKd (NHERF4_4, Q86UT5; [3]): 4.4
pKd (FRMPD4, Q14CM0; [3]): 5.35
pKd (TIAM2, Q8IVF5; [3]): below the threshold
pKd (LIN7B, Q9HAP6; [3]): 4.92
pKd (CASK, O14936; [3]): below the threshold
pKd (Inadl_6, Q8NI35; [3]): 5.69
pKd (TJP1_3, Q07157; [3]): below the threshold
pKd (MAST2, Q6P0Q8; [3]): 5.44
pKd (DLG1_3, Q12959; [3]): 4.22
pKd (IL16_4, Q14005; [3]): below the threshold
pKd (APBA3_1, O96018; [3]): below the threshold
pKd (GRIP2_6, Q9C0E4; [3]): below the threshold
pKd (PDZRN4_1, Q6ZMN7; [3]): 5.58
pKd (LRRC7, Q96NW7; [3]): 4.47
pKd (SIPA1L2, Q9P2F8; [3]): below the threshold

B5: DCHS2, Q6V1P9 (peptide)
chain: ELKAEDEVQI
pKd (DLG4_2, P78352; [4]): below the threshold
pKd (MPDZ_10, O75970; [4]): below the threshold
pKd (PDLIM1, O00151; [4]): below the threshold
pKd (APBA1_1, Q02410; [4]): below the threshold
pKd (GOPC, Q9HD26; [4]): below the threshold
pKd (NHERF3_3, Q5T2W1; [4]): below the threshold
pKd (PDZD2_2, O15018; [4]): below the threshold
pKd (Inadl_1, Q8NI35; [4]): below the threshold
pKd (GRIP1_4, Q9Y3R0; [4]): below the threshold
pKd (HTRA2, O43464; [4]): below the threshold
pKd (DFNB31_3, Q9P202; [4]): below the threshold
pKd (NHERF4_4, Q86UT5; [4]): below the threshold
pKd (FRMPD4, Q14CM0; [4]): below the threshold
pKd (TIAM2, Q8IVF5; [4]): 3.52
pKd (LIN7B, Q9HAP6; [4]): 3.48
pKd (CASK, O14936; [4]): below the threshold
pKd (Inadl_6, Q8NI35; [4]): below the threshold
pKd (TJP1_3, Q07157; [4]): below the threshold
pKd (MAST2, Q6P0Q8; [4]): below the threshold
pKd (DLG1_3, Q12959; [4]): below the threshold
pKd (IL16_4, Q14005; [4]): 3.6
pKd (APBA3_1, O96018; [4]): below the threshold
pKd (GRIP2_6, Q9C0E4; [4]): below the threshold
pKd (PDZRN4_1, Q6ZMN7; [4]): below the threshold
pKd (LRRC7, Q96NW7; [4]): below the threshold
pKd (SIPA1L2, Q9P2F8; [4]): below the threshold
